± gives the standard deviation of the averaged measurements.
Experiment: total protein half-life in vivo (active degradation + dilution); higher = more stable protein
[1] = E. coli NCM3722 delta-clpP delta-lon delta-hslV, growth: N-lim chemostat, doubling time 6 h
[2] = E. coli NCM3722 delta-clpP, growth: N-lim chemostat, doubling time 6 h
[3] = E. coli NCM3722 delta-hslV, growth: N-lim chemostat, doubling time 6 h
[4] = E. coli NCM3722 delta-lon, growth: N-lim chemostat, doubling time 6 h
[5] = E. coli NCM3722 delta-smpB, growth: N-lim chemostat, doubling time 6 h
[6] = wild type E. coli NCM3722, growth: C-lim chemostat, doubling time 3 h
[7] = wild type E. coli NCM3722, growth: C-lim chemostat, doubling time 6 h
[8] = wild type E. coli NCM3722, growth: C-lim chemostat, doubling time 12 h
[9] = wild type E. coli NCM3722, growth: N-lim chemostat, doubling time 6 h
[10] = wild type E. coli NCM3722, growth: N-lim chemostat, doubling time 12 h
[11] = wild type E. coli NCM3722, growth: P-lim chemostat, doubling time 6 h
[12] = wild type E. coli NCM3722, growth: P-lim chemostat, doubling time 12 h

With “MIKKIGVLTSGGDAPGMNAAIRGVVRSALTEGLEVMGIYDGYLGLYEDRMVQLDRYSVSDMINRGGTFLGSARFPEFRDENIRAVAIENLKKRGIDALVVIGGDGSYMGAMRLTEMGFPCIGLPGTIDNDIKGTDYTIGFFTALSTVVEAIDRLRDTSSSHQRISVVEVMGRYCGDLTLAAAIAGGCEFVVVPEVEFSREDLVNEIKAGIAKGKKHAIVAITEHMCDVDELAHFIEKETGRETRATVLGHIQRGGSPVPYDRILASRMGAYAIDLLLAGYGGRCVGIQNEQLVHHDIIDAIENMKRPFKGDWLDCAKKLY [P0A796]” the “total protein half-life in vivo” value [1] was 4.43 ± 0.51 h, the “total protein half-life in vivo” value [2] was 3.9 ± 0.11 h and the “total protein half-life in vivo” value [3] was 4.03 ± 0.12 h. For the same sequence, the “total protein half-life in vivo” value [4] was 4.146 ± 0.0074 h, the “total protein half-life in vivo” value [5] was 3.89 ± 0.13 h and the “total protein half-life in vivo” value [6] was 3 ± 0.15 h. For the same sequence, the “total protein half-life in vivo” value [7] was 5.83 ± 0.099 h, the “total protein half-life in vivo” value [8] was 10.3 ± 0.71 h and the “total protein half-life in vivo” value [9] was 3.64 ± 0.18 h. The “total protein half-life in vivo” value [10] was 5.77 ± 0.15 h, the “total protein half-life in vivo” value [11] was 5.69 ± 0.36 h and the “total protein half-life in vivo” value [12] was 11.7 ± 0.9 h.

For “MWDVIDLSRWQFALTALYHFLFVPLTLGLIFLLAIMETIYVVTGKTIYRDMTRFWGKLFGINFALGVATGLTMEFQFGTNWSFYSNYVGDIFGAPLAMEALMAFFLESTFVGLFFFGWQRLNKYQHLLVTWLVAFGSNLSALWILNANGWMQYPTGAHFDIDTLRMEMTSFSELVFNPVSQVKFVHTVMAGYVTGAMFIMAISAWYLLRGRERNVALRSFAIGSVFGTLAIIGTLQLGDSSAYEVAQVQPVKLAAMEGEWQTEPAPAPFHVVAWPEQDQERNAFALKIPALLGILATHSLDKPVPGLKNLMAETYPRLQRGRMAWLLMQEISQGNREPHVLQAFRGLEGDLGYGMLLSRYAPDMNHVTAAQYQAAMRGAIPQVAPVFWSFRIMVGCGSLLLLVMLIALVQTLRGKIDQHRWVLKMALWSLPLPWIAIEAGWFMTEFGRQPWAIQDILPTYSAHSALTTGQLAFSLIMIVGLYTLFLIAEVYLMQKYARLGPSAMQSEQPTQQQG”, the “total protein half-life in vivo” value [1] was 3.4 h, the “total protein half-life in vivo” value [3] was 4.58 ± 0.54 h and the “total protein half-life in vivo” value [4] was 1.46 h. The “total protein half-life in vivo” value [5] was 1.93 h, the “total protein half-life in vivo” value [9] was 5.27 ± 0.94 h and the “total protein half-life in vivo” value [10] was 14.6 h. For the same sequence, the “total protein half-life in vivo” value [11] was 0.869 h and the “total protein half-life in vivo” value [12] was 2.11 h.

For “MLYIFDLGNVIVDIDFNRVLGAWSDLTRIPLASLKKSFHMGEAFHQHERGEISDEAFAEALCHEMALPLSYEQFSHGWQAVFVALRPEVIAIMHKLREQGHRVVVLSNTNRLHTTFWPEEYPEIRDAADHIYLSQDLGMRKPEARIYQHVLQAEGFSPSDTVFFDDNADNIEGANQLGITSILVKDKTTIPDYFAKVLC [P0A8Y3]”, the “total protein half-life in vivo” value [2] was 5.75 ± 1.6 h, the “total protein half-life in vivo” value [3] was 3.94 ± 0.21 h and the “total protein half-life in vivo” value [4] was 5 ± 0.69 h. The “total protein half-life in vivo” value [5] was 4.212 ± 0.04 h, the “total protein half-life in vivo” value [6] was 2.92 ± 0.13 h and the “total protein half-life in vivo” value [7] was 6.31 ± 0.65 h. The “total protein half-life in vivo” value [8] was 9.46 ± 0.36 h, the “total protein half-life in vivo” value [9] was 4.14 ± 0.74 h and the “total protein half-life in vivo” value [10] was 6.16 ± 0.12 h. The “total protein half-life in vivo” value [11] was 5.18 ± 0.06 h and the “total protein half-life in vivo” value [12] was 9.4 ± 0.48 h.

In the case of “MLKREMNIADYDAELWQAMEQEKVRQEEHIELIASENYTSPRVMQAQGSQLTNKYAEGYPGKRYYGGCEYVDIVEQLAIDRAKELFGADYANVQPHSGSQANFAVYTALLEPGDTVLGMNLAHGGHLTHGSPVNFSGKLYNIVPYGIDATGHIDYADLEKQAKEHKPKMIIGGFSAYSGVVDWAKMREIADSIGAYLFVDMAHVAGLVAAGVYPNPVPHAHVVTTTTHKTLAGPRGGLILAKGGSEELYKKLNSAVFPGGQGGPLMHVIAGKAVALKEAMEPEFKTYQQQVAKNAKAMVEVFLERGYKVVSGGTDNHLFLVDLVDKNLTGKEADAALGRANITVNKNSVPNDPKSPFVTSGIRVGTPAITRRGFKEAEAKELAGWMCDVLDSINDEAVIERIKGKVLDICARYPVYA [P0A825]”, the “total protein half-life in vivo” value [1] is reported as 4.68 ± 1 h, the “total protein half-life in vivo” value [2] is reported as 3.83 ± 0.091 h and the “total protein half-life in vivo” value [3] is reported as 3.87 ± 0.15 h. The “total protein half-life in vivo” value [4] was 4.35 ± 0.27 h, the “total protein half-life in vivo” value [5] was 3.8 ± 0.26 h and the “total protein half-life in vivo” value [6] was 3.22 ± 0.18 h. For the same sequence, the “total protein half-life in vivo” value [7] was 5.51 ± 0.18 h, the “total protein half-life in vivo” value [8] was 10.7 ± 2.1 h and the “total protein half-life in vivo” value [9] was 3.814 ± 0.011 h. The “total protein half-life in vivo” value [10] was 5.98 ± 0.077 h, the “total protein half-life in vivo” value [11] was 5.73 ± 0.5 h and the “total protein half-life in vivo” value [12] was 11.3 ± 0.74 h.

For “MSWLKEVIGTEKAVIAMCHLRALPGDPSFDAQLGMNWVIDKAWDDLMALQNGGVDAVMFSNEFSLPYLTKVRPETTAAMARIIGQLMSDIRIPFGVNVLWDPVASFDLAMATGAKFIREIFTGAYASDFGVWDTNVGETIRHQHRIGAGEVKTLFNIVPEAAVYLGNRDICSIAKSTVFNNHPDALCVSGLTAGTRTDSALLKRVKETVPDTVVLANTGVCLENVEEQLSIADGCVTATTFKKDGVFANFVDQARVSQFMEKVHHIRR”, the “total protein half-life in vivo” value [1] was 4.34 ± 0.67 h, the “total protein half-life in vivo” value [6] was 1.07 ± 0.83 h and the “total protein half-life in vivo” value [7] was 5.65 ± 0.48 h. The “total protein half-life in vivo” value [8] was 8.62 ± 0.11 h and the “total protein half-life in vivo” value [12] was 3.45 h.

— the supplement of paper PMC11246515
